Results taken from patent publication US20250257130A1 (NONA BIOSCIENCES SUZHOU, published 2025).
Each block holds one binder with its values, some of them ahead of it.

Tests used:
[1] = target: T1, human ROR1 on cells (HEK293T-hROR1, PANC-1, A549) (human, UniProt Q01973 30-937); experiment: flow cytometry, PANC-1 cells
T1 construct: whole, on cells; one molecule for the three cell lines; also called huROR1; cell surface ROR1
Protocol: (§1) In brief, anti-ROR1 antibodies were serially diluted in staining buffer (PBS containing 2% FBS). Antibody solution was incubated with 1×10⁵ cells at 4° C. for 1 hour. […] After 1-hour incubation at 4° C., cells were washed twice with staining buffer and subjected to flow cytometry. PR000374 (Bench marker 1) and non-relevant IgG isotype control (Crownbio) were used as positive and negative controls, respectively.

[2] = target: T2, cynomolgus ROR1 on CHO-K1-cynoROR1 cells (cynomolgus monkey, UniProt A0A2K5WTX7 30-937); experiment: flow cytometry, CHO-K1-cynoROR1 cells
T2 construct: whole, on cells
Protocol: (§2) Binding of recombinant anti-ROR1 antibodies to human or cynomolgus ROR1-overexpressing cells was tested by flow cytometry. In this example, ROR1-expressing cell lines are HEK293T cell lines that had been transfected to express human ROR1 on the surface (HEK293T-hu ROR1, KYINNO BIOTECHNOLOGY CO., LTD, Catalog #KC-1018), CHO-K1 cell lines that had been transfected to express cynomolgus ROR1 (CHOK1-cyno ROR1), PANC-1 (ATCC, catalog: CRL-1469) or A549 cell lines (Shanghai Institute of Biochemistry and Cell Biology, Chinese Academy of Sciences).
as §1

[3] = target: T1, human ROR1 on cells (HEK293T-hROR1, …); experiment: flow cytometry on PANC-1 cells, MFI (APC-A Median)
Protocol: as §2, §1

[4] = target: T2, cynomolgus ROR1 on CHO-K1-cynoROR1 cells; experiment: flow cytometry on CHOK1-cynoROR1 cells, MFI (APC-A Median) [top panel]
Protocol: as §2, §1

[5] = target: T1, human ROR1 on cells (HEK293T-hROR1, …); experiment: flow cytometry, PANC-1 cells; remark: listed apart in the source
Protocol: as §1
Binding activity of the variants to PANC-1 cells were tested using the same method described in example 5.1. The results were shown in FIGS. 7-8 and Table 11 and Table 12.

[6] = target: T1, human ROR1 on cells (HEK293T-hROR1, …); experiment: flow cytometry, A549 cells
Protocol: as §1

[7] = target: T3, Human ROR1-ECD-his (Acro Biosystems RO1-H522y) (human, UniProt Q01973 30-406); experiment: ELISA, coated hu-ROR1-ECD-his
T3 construct: extracellular domain; bought protein; also called hROR1-ECD-his; hu-ROR1-ECD-his
Protocol: (§3) Binding of recombinant anti-ROR1 antibodies to hu-ROR1-ECD-his was tested by ELISA. In brief, 1 μg/mL hu-ROR1-ECD-his was added to the 96-well plate, 100 μL each well, incubated at 4° C. overnight, washing the plates with 1×PBST 3 times, 300 ul/well, blocking the plates with 2% BSA in 1×PBST, 200 ul/well at 37° C. for 1 hour, anti-ROR1 antibodies were serially diluted in staining buffer (PBS containing 2% BSA). Antibody solution was added to the plate and incubates at 37° C. for 1 hour, washing the plates with 1×PBST 3 times, 300 ul/well, adding secondary antibody 100 ul/well and incubate at 37° C. for 1 hour, washing the plates with 1×PBST 3 times, 300 ul/well and then add 100 ul/well TMB for about 5 min, stop the reaction by adding 100 ul/well 2M H₂SO₄, read the plates with Molecular device spectra max plus384 at 450 nm and 570 nm.

[8] = target: T1, human ROR1 on cells (HEK293T-hROR1, …); experiment: flow cytometry, HEK293T-hROR1 cells
Protocol: as §1

[9] = target: T2, cynomolgus ROR1 on CHO-K1-cynoROR1 cells; experiment: flow cytometry, CHO-K1-cynoROR1 cells; remark: listed apart in the source
Protocol: as §1

[10] = target: T3, Human ROR1-ECD-his (Acro Biosystems …); experiment: BLI, ROR1-His on HIS1K sensor, antibody in solution
Protocol: In the example, binding kinetics of anti-ROR1 antibodies to soluble ROR1 protein were analyzed by using Bio-Layer Interferometry (BLI) analysis on Fortebio Octet Red384 instrument (Fortebio).
In BLI analysis, recombinant anti-ROR1 antibodies was serially diluted with 10× kinetics buffer (Fortebio). Human ROR1-His proteins were diluted to 20 nM. Then the diluted antibodies, ROR1 proteins and regeneration buffer (10 mM glycine HCl pH 1.5) were added to 96-well plates (Greiner). Rate constants for association and dissociation were measured using HIS1K sensor (Fortebio). The sensor surface was regenerated after each binding experiment with regeneration buffer. The traces were processed using Octet Data Analysis Software (version 11.0, Pall ForteBio, CA, USA).

[11] = target: T4, hu-ROR2-ECD-his (Acrobiosystems RO2-H52E5) (human, UniProt Q01974 34-403); experiment: ELISA, plate coated with hu-ROR2-his at 1 µg/mL
T4 construct: extracellular domain; bought protein; also called Human ROR2 his-tagged protein; Human ROR2, His Tag
Protocol: as §3, with “1” for “Binding of recombinant anti-ROR1 antibodies to hu-ROR1-ECD-his was tested by ELISA. In brief, 1”, “hu-ROR2-ECD-his (Acrobiocystems, RO2-H52E5)” for “hu-ROR1-ECD-his”

T3 sequence (Q01973 30-406): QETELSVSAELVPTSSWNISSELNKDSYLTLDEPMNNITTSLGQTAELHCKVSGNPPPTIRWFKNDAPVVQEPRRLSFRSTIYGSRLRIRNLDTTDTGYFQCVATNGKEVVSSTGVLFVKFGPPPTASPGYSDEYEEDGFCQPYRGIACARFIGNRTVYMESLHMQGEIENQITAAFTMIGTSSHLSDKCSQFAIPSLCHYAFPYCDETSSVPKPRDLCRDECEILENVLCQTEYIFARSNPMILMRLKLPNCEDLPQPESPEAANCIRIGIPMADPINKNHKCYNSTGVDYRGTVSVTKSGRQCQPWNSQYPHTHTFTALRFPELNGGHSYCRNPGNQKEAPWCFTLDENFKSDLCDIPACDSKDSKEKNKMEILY
T4 sequence (Q01974 34-403): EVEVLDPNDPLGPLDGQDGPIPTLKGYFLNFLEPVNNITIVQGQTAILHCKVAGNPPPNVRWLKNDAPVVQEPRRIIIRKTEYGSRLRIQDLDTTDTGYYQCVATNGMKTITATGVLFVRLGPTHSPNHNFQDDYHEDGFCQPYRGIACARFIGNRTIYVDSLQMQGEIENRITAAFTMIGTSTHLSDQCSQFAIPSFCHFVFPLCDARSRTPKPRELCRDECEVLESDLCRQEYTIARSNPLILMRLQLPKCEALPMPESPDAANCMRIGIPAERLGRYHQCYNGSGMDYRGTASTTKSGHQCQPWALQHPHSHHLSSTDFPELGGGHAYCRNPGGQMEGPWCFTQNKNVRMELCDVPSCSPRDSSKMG
T1 sequence (Q01973 30-937): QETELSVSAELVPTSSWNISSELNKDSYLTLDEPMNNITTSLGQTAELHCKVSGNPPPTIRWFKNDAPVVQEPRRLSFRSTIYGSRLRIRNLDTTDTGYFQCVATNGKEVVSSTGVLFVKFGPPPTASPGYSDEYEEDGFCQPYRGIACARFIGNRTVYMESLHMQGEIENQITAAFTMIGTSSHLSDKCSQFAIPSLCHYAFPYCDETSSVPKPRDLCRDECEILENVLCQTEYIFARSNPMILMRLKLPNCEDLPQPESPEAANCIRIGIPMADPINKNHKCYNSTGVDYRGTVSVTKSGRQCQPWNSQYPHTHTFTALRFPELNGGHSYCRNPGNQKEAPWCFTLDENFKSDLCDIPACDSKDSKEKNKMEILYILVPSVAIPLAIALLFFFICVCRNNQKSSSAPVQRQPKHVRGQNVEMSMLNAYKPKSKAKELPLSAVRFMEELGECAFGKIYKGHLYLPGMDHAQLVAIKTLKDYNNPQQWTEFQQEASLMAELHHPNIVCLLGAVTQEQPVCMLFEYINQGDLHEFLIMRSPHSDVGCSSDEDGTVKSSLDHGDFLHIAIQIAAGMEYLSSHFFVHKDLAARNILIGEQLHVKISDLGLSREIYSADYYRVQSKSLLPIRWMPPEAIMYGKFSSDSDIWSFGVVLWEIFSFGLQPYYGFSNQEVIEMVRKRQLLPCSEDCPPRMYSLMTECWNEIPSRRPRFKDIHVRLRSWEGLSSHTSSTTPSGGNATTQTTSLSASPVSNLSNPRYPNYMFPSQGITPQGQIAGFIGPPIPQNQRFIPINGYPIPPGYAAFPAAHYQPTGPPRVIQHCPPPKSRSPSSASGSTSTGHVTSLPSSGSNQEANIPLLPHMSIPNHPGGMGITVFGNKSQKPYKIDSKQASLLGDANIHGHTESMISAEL

B1: PR005343 (antibody, human IgG1, V domains shown)
VH: EVQLVESGGGLVKPGGSLRLSCVASGFTFSDYYMSWIRQAPGKGMEWISYISSSGSTKNYANSVKGRFTISRDNAKNSLYLQMNSLRAEDTAAYYCARVPPYNASWYEDFDYWGQGTLVTVSS
notes: HCAb (heavy chain-only, human IgG1 Fc), no light chain
Max [1]: 18300
Max [2]: 34100
EC50 (read off the curve) [3]: ~2 nM
EC50 (read off the curve) [4]: ~4 nM

B3: PR005350 (antibody, human IgG1, V domains shown)
VH: EVQLVESGGGLVKPGGSLRLSCAASGFTLSDSQMSWIRQAPGKGVEWVSYISSSGNTIYYGDSVKGRFTISRDNAKNSLFLQMNSLRAEDTAVYYCARVPPSSSNWYEDFDIWGQGTLVTVSS
notes: as for B1
Max [1]: 4250
Max [2]: 14400

B5: PR007421 (antibody, V domains shown)
VH: EVQLVESGGGLVKPGGSLRLSCAASGFTFSDFYMSWIRQAPGKGLEWISYIDSSGRPLAYADSVKGRFTISRDNAKNSLYLQMNSLRAEDTAIYYCARDMPSSSSDWVSLQFDYWGQGTLVTVSS
notes: bivalent form (HCAb) variant of PR005340, no light chain
TOP [5]: 86600

B6: PR005348 (antibody, human IgG1, V domains shown)
VH: EVQLVESGGGLVKPGGSLRLSCAASGFTFSDYYMSWIRQTPGKGLEWVSYISRSGSTKYYADSVKGRFTISRDNAKNSLYLQMNSLRAEDTAVYYCARDAPSSNSDWVSLHFDHWGQGTLVTVSS
notes: as for B1
Max [1]: 10200
Max [2]: 28000

B10: PR303199 (antibody, human IgG1, V domains shown)
VH: EVQLVESGGGLVKPGGSLRLSCAASGFTFSDYYMSWIRQAPGKGLEWIAYISSSGSTIYYADSVKGRFTISRDNAKNSLYLQMNSLRAEDTAIYYCAREYYGSENYDHFDYWGQGTLVTVSS
notes: as for B1
EC50 [6]: 6.79 µg/mL
MAX(MFI) [6]: 408000 MFI
EC50 [1]: 11.3 µg/mL
MAX(MFI) [1]: 462000 MFI
EC50 [7]: 0.006 µg/mL
EC50 [8]: 0.191 µg/mL
MAX(MFI) [8]: 1.53e+07 MFI
EC50 [9]: 1.43 µg/mL
MAX(MFI) [9]: 6.85e+06 MFI
Kd [10]: 14.1 nM
koff [10]: 0.00173 s⁻¹
kon [10]: 123000 M⁻¹ s⁻¹
binding result [11]: no binding (tested: about 15 µg/ml)

B12: PR005339 (antibody, human IgG1, V domains shown)
VH: EVQLVESGGGLVKPGGSLKLSCAASGFTFSDYYMSWIRQAPGKGVEWISYISNNGSTIHYADSVKGRFTISRDNAKNSLYLQMNSLRAEDTAVYYCARDFNNGWYEDFDYWGQGTLVTVSS
notes: as for B1
Max [1]: 16200
Max [2]: 34800
EC50 (read off the curve) [3]: ~2 nM
EC50 (read off the curve) [4]: ~4 nM

B14: PR303155 (antibody, human IgG1, V domains shown)
VH: EVQLVESGGGLVKPGGSLRLSCAASGFTLSDYYMSWIRQAPGKGLEWISYISSNGSTIYYADSVKGRFTISRDNARNSLYLQMNSLRAEDTALYYCARDVSSGWYEDFDYWGQGTLVTVSS
notes: as for B1
EC50 [6]: 1.32 µg/mL
MAX(MFI) [6]: 791000 MFI
EC50 [1]: 1.07 µg/mL
MAX(MFI) [1]: 552000 MFI
EC50 [7]: 0.002 µg/mL
EC50 [8]: 0.267 µg/mL
MAX(MFI) [8]: 1.49e+07 MFI
EC50 [9]: 0.804 µg/mL
MAX(MFI) [9]: 1.1e+07 MFI
Kd [10]: 6.83 nM
koff [10]: 0.00336 s⁻¹
kon [10]: 492000 M⁻¹ s⁻¹
binding result [11]: no binding (tested: about 15 µg/ml)

Other lines, results leading:

Max [1]: 16400
Max [2]: 32700
EC50 (read off the curve) [3]: ~8 nM
EC50 (read off the curve) [4]: ~10 nM
B2: PR005347 (antibody, human IgG1, V domains shown)
VH: EVQLVESGGGLVKPGGSLRLSCVTSGFTFSDYYMSWIRQAPGKGMEWISYISTTGSTKNYANSVKGRFTISRDNAKSSLYLQMNSLRAEDTAAYYCARVPPSNASWYEDFDYWGQGTLVTVSS
notes: as for B1

Max [1]: 9710
Max [2]: 24600
B4: PR005345 (antibody, human IgG1, V domains shown)
VH: EVQLVESGGGLVKPGGSLRLSCAASGFTFSDYYMSWIRQAPGKGLEWIAYISSSGSTIHYSDSVKGRFTISRDNAKNSLYLQMNSLRAEDTAVYYCARDTPSSSSDWVSLQFDYWGQGTPVTVSS
notes: as for B1

EC50 [6]: 0.93 µg/mL
MAX(MFI) [6]: 875000 MFI
EC50 [1]: 0.654 µg/mL
MAX(MFI) [1]: 653000 MFI
EC50 [7]: 0.002 µg/mL
EC50 [8]: 0.158 µg/mL
MAX(MFI) [8]: 1.35e+07 MFI
EC50 [9]: 0.474 µg/mL
MAX(MFI) [9]: 1.04e+07 MFI
Kd [10]: 11.1 nM
koff [10]: 0.0031 s⁻¹
kon [10]: 278000 M⁻¹ s⁻¹
binding result [11]: no binding (tested: about 15 µg/ml)
B7: PR303145 (antibody, human IgG1, V domains shown)
VH: QVQLVESGGGLVKPGGSLRISCAASGFTFSNYNMSWIRQAPGKGVEWVSHISGSGRTIYYAESVKGRFTISRDNAKNSLYLQMNSLRAEDTAMYYCARDLSSGWYEDFDYWGQGTLVTVSS
notes: as for B1

Max [1]: 10200
Max [2]: 26600
B8: PR005346 (antibody, human IgG1, V domains shown)
VH: EVQLVESGGGLVKPGGSLRLSCAASGFTLSDYYMSWIRQAPGKGLEWVSNISKNGFTIYYAESVKGRFTVSRDNAKNSLYLQMNSLRAEDTAIYYCARDSSGWYSEFDYWGQGTLVTVSS
notes: as for B1

Max [1]: 14700
Max [2]: 31100
EC50 (read off the curve) [3]: ~20 nM
EC50 (read off the curve) [4]: ~20 nM
B9: PR005337 (antibody, human IgG1, V domains shown)
VH: EVQLVESGGGLVKPGGSLRLSCAASGFIFSDYYMSWIRQAPGKGLEWVSYISSSGSTIHYADSVKGRFTVSRDNAKNSLYLQMNSLRTEDTAVYYCARDPPTSNSDWVSLHFDHWGQGTLVTVSS
notes: as for B1

Max [1]: 16500
Max [2]: 32900
EC50 (read off the curve) [3]: ~2 nM
EC50 (read off the curve) [4]: ~3 nM
B11: PR005341 (antibody, human IgG1, V domains shown)
VH: EVQLVESGGGLVKPGGSLRLSCVASGFTFSDYYMSWIRQAPGKGLEWISYISSSGSSIYYAESVKGRFTISRDNAKNSLYLQMNRLRAEDTALYYCARTPPSSDNWYEDFDYWGQGALVTVSS
notes: as for B1

Max [1]: 16700
Max [2]: 34500
EC50 (read off the curve) [3]: ~4 nM
EC50 (read off the curve) [4]: ~7 nM
B13: PR005342 (antibody, human IgG1, V domains shown)
VH: EVQLVESGGGLVKPGGSLRLSCAASGFNFSDYYMSWIRQAPGKGLEWISYISNSSSTIYYADSVKGRFTISRDNAKNSLYLQMSRLRAEDTAMYYCARDTTNGWYEDFDYWGQGTLVTVSS
notes: as for B1
